Data from patent US20220249679A1 (Mitsubishi Tanabe Pharma Corporation, priority 2018, published 2022).

Assays:
human CD138 = target: T1, human CD138 (Homo sapiens, UniProt P18827); experiment: FACS binding to Expi293 cells transfected with human CD138; details: 3-fold dilutions from 33.3 μg/mL
T1 sequence (P18827 23-310): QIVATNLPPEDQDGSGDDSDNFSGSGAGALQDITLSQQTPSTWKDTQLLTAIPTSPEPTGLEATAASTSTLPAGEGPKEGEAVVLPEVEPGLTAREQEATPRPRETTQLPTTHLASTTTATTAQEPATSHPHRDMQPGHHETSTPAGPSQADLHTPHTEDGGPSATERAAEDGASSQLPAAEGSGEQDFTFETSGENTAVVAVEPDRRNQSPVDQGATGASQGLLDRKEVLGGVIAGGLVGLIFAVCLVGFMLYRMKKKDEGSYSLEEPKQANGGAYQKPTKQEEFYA
Method: (§1) 12P16F6 hIgG1 or 13P30A7 hIgG1 were tested for cross-reactivity to cynomolgus monkey CD138. Antibodies that cross-react with CD138 from cynomolgus monkey (cyno) have an advantage that they can be tested for toxicity in this strain of non-human primate prior to conducting efficacy trials. Briefly, a vector directing the cell-surface expression of human CD138 or cyno CD138 was transfected in Expi293 cells. Binding of 12P16F6 hIgG1 and 13P30A7 hIgG1 to transfected Expi293 cells was tested at 3-fold dilutions starting at 33.3 μg/mL.

cyno CD138 = experiment: FACS binding to Expi293 cells transfected with cyno CD138; parameters: species or system cynomolgus monkey; details: 3-fold dilutions from 33.3 μg/mL
Chain of cyno CD138 (as listed by the source): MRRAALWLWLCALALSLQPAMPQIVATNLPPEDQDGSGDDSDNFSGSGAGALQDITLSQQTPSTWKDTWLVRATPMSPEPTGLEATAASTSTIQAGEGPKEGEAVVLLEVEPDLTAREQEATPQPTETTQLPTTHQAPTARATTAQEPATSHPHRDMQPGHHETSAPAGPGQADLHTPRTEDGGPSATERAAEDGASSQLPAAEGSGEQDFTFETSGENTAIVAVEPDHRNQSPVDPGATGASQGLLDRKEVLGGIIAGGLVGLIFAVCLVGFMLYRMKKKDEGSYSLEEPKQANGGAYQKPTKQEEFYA
Method: as §1

With Secukinumab [reference compound] the “binding to human CD138 expressing cells” value (human CD138) was “little or no specific binding” and the “binding to cynomolgus CD138 expressing cells” value (cyno CD138) was “little or no specific binding”.
